US20190381150

T1: Bovine ribonuclease B (ribonuclease B from bovine pancreas, Sigma-Aldrich), P61823
T1 chain: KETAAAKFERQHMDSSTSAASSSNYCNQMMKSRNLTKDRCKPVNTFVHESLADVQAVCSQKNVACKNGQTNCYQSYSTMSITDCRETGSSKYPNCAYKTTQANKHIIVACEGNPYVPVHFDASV

T2: bovine fetuin, P12763
T2 chain: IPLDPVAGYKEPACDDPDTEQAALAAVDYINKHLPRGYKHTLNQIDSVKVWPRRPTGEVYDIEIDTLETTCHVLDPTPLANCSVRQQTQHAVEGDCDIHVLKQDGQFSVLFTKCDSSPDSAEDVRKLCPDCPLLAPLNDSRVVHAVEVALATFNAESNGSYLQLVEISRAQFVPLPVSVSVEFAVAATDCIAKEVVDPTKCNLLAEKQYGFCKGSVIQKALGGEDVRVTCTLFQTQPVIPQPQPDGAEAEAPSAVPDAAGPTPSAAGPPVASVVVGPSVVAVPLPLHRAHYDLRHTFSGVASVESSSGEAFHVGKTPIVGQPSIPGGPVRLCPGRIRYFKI


Assays:
[1] = molecular target: Human lactoferrin (lactoferrin from human milk, Sigma), P02788
Sequence of Human lactoferrin (lactoferrin from human milk, Sigma), P02788 (P02788 20-710): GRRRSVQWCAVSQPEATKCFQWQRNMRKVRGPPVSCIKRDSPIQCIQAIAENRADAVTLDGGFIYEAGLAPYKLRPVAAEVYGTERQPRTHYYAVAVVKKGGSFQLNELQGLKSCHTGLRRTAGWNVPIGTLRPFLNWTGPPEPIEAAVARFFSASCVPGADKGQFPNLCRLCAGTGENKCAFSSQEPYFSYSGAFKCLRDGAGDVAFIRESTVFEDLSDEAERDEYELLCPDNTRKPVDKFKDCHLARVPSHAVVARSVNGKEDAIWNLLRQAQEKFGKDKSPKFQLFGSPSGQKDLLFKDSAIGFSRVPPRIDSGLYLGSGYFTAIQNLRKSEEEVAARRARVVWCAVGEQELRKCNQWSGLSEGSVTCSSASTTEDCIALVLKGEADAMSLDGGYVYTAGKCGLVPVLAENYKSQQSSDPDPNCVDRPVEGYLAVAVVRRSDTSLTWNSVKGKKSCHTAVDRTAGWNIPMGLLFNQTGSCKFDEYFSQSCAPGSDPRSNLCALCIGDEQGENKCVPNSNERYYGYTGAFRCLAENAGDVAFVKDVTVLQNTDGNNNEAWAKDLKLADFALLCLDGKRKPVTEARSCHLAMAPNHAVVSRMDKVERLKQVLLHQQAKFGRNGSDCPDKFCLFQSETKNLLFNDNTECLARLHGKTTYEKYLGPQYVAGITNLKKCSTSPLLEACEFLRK

[2] = molecular target: T1, Bovine ribonuclease B (ribonuclease B …)
[3] = molecular target: Bovine lactoferrin (lactoferrin from bovine milk, Sigma), P24627
Sequence of Bovine lactoferrin (lactoferrin from bovine milk, Sigma), P24627 (P24627 20-708): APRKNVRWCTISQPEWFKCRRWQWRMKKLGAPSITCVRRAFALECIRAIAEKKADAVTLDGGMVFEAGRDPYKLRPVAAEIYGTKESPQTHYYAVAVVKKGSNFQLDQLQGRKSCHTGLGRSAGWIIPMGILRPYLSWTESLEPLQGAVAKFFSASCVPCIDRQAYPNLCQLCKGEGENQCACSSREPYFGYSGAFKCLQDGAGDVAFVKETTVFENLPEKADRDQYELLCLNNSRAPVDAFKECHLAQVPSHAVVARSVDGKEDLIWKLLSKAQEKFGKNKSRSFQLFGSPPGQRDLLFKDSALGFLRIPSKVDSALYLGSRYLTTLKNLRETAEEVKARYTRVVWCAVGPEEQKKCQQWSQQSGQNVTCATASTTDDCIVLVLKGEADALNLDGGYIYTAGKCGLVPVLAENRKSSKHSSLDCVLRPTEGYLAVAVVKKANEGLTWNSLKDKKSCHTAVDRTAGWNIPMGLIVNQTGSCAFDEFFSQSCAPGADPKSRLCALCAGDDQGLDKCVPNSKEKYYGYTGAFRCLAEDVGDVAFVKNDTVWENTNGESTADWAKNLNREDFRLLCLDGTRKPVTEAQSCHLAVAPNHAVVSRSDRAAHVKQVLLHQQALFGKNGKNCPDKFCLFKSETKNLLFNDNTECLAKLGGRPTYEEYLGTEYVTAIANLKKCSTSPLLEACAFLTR

[4] = molecular target: T2, bovine fetuin, P12763

Protein | deglycosylation (cleavage of high mannose glycans) [1] | deglycosylation (cleavage of high mannose glycans) [2] | deglycosylation (cleavage of high mannose glycans) [3] | deglycosylation, change in MW on SDS-PAGE after overnight incubation [3] | release of N-glycans [4] | deglycosylation, SDS-PAGE after overnight incubation [1] | shift in molecular weight on SDS-PAGE of human milk after overnight incubation [1]
EndoBB (GH85 endo-β-N-acetylglucosaminidase, BLD_0197 from B. longum DJO10A), recombinant, signal peptide and transmembrane domain omitted (protein) CSGGTSATKYTITPENENEELVLGNRPEASYWFPEDLLKWNADKDPNLAYNVSTVPLAKRVDKADLKPVNDTQNTDTKVMAISIMNSSTSGNAPHGLNTANANTFSYWQYVDELVYWGGSSGEGIIVPPSPDVTDMGHTNGVPVLGTVFFPQNVSGGKVEWLDQTLAQKSDGSFPVADKLIEVATTYGFDGWFINQETEGENETSLGADYATKMQAFIAYLKKQAPDLRVVYYDSMTKDGSIDWQNALTDENSMYMTDGDHPIADEMFLNFWWTEDKLAGDDLLAASATKAKELGIDPYSLYAGIDVQADGYDTPVKWNLFAGKDGKTHTSLGLYCPSWAYWSAGNPTTFRKNESRLWVNDEGNPSVSTPYEDDEKWTGVSNYVAEQSAVTSLPFVTNFNNGSGYSFFREGKQISKMDWNNRSVSDIQPTYRWIVADEGGNKTKADYSDADAWYGGSSLKFSGKVAKDGKTMVKLYSASVKTGAKPTLSIAAKANVDTDLKAVLTFADGSVETVNGKKKVGNDWGVIDYDIAKLSNKTLTGIDFTYQSSEDKTGYELLLGNITLKDGSEETELGKVTEVKVDDSEFDDDALYAGARISWKTDGKAPAYEIYQINEDKSRSFLGVSNVENFYANALTRVGETNNTTFEIVPVDRYGTQGTSAKADMDWPDNSKPKAGATASRTLLNVGDEVTFTSASSKNTAEVAWSLPGSSKEHATGKSVTVTYDKEGVYDVEITAKNKSGEATATLKGQIVVSADVMDLVLLSQGAQVSADGFTNGNEKPEFAVDGDVKTKWCVTGPAPHELVVDLGAPKTVSQVDISHAQAGGEDASMNTQEYAIEVSEDGTEYTQVALVKGNTEGATSNAFAPVNARYVKLVVNKPTQGSDTAARIYEMQVRGADGAIL | cleaving RNAseB and bLF, but not hLF | cleaving RNAseB and bLF, but not hLF | cleaving RNAseB and bLF, but not hLF | all of them were able to cleave bLF, as observed by discrete changes in MW on SDS-PAGE gels |  |  | 
EndoBI-1 (endo-β-N-acetylglucosaminidase from B. infantis ATCC 15697, Blon_2468), recombinant, signal peptide and transmembrane domains omitted (protein) NADAVSPTQETIQSTGRHFMVYYRAWRDVTMKGVNTDLPDDNWISMYDIPYGVDVVNIFSYVPSGQEEQAQPFYDKLKSDYAPYLHSRGIKLVRGIDYTGVAVNGFRTFMKEQNKTESEATEADYDAYAKQVIDKYMISVGLDGLDIDMEAHPNDADVKISDNVIRALSKHIGPKSAKPDTTMFLYDTNGSYLNPFKNVAECFDYVAYQQYGSSSDRTARAAADYQPYIGNEFVPGLTFPEEGDMNNRWYDATEPYEESHFYQVASYVREHNLGGMFVYALDRDGRNYDEDLRRIVPSNLLWTKTAIAESEGMALDTAKTAANHYLDRMSLRQVIDDNAASADKARDMVGKAANLYETNKAVLGGDYGEGFSNTYDPTLEAGLLGIDISVLQQQIDKSSEIIGADTAESDAKTALRMARDAAIDGLTGKIYTADQVSAWSQALKAALDATVPVPTPDSTDQNGNRDKVTNHKVQGQPKQLSAT |  |  |  | all of them were able to cleave bLF, as observed by discrete changes in MW on SDS-PAGE gels | releasing N-glycans from human IgA, IgG, RNase B and bovine fetuin | EndoBI-1 and EndoBI-2 cleaved hLF | produced a shift in the molecular weight of primarily lactoferrin
EndoBI-2 (endo-β-N-acetylglucosaminidase from B. infantis SC142), recombinant, signal peptide and transmembrane domains omitted (protein) VANAQEGDSPVAASQEGNGNKHFMVYYRAWRDVTMKGVNTDLPDDNWISMYDIPYGIDVVNVFSYVPSGQEAAAQPFYDKLKSDYAPYLHARGVKLVRGLDYSGVMVDGFKTWIAQQGKNVDSATESDYDAYADHVIETYMTSVGLDGLDIDMETFPDAAQVAISDQVITALAKRIGPKSDNPEGTMFLYDTNGSYTAPFKNVSDCFDYVAYQQYGSDSNRTAKAAATYEQFIDSTKFVPGLTFPEEGDMNNRWNDATEPYLDSHFYDVASYSYDHNLGGMFVYALDRDGRTYSDDDLAHIKPSNLIWTKTAIAQSQGMSLENAKQAANHFLDRMSYTKDVPAETRQTVAAATNLYEVNKAVLGADWNDGYSNTYDPTLELSLASIDTTALTGAIAKADALLADGATDTDVRTTLTTARNAA |  |  |  | all of them were able to cleave bLF, as observed by discrete changes in MW on SDS-PAGE gels |  | EndoBI-1 and EndoBI-2 cleaved hLF | 
